# Results published in paper PMC13544220, “Glycemic and bodyweight effects of GIPR coding variation reflect differences in surface expression and intrinsic functional impairment” (Science Advances, 2026).
# B1: I378M (protein, UniProt P48546 22-466, looked up, variant I378M)
# Gastric inhibitory …: RAETGSKGQTAGELYQRWERYRRECQETLAAAEPPSGLACNGSFDMYVCWDYAAPNATARASCPWYLPWHHHVAAGFVLRQCGSDGQWGLWRDHTQCENPEKNEAFLDQRLILERLQVMYTVGYSLSLATLLLALLILSLFRRLHCTRNYIHINLFTSFMLRAAAILSRDRLLPRPGPYLGDQALALWNQALAACRTAQIVTQYCVGANYTWLLVEGVYLHSLLVLVGGSEEGHFRYYLLLGWGAPALFVIPWVIVRYLYENTQCWERNEVKAIWWIIRTPILMTILINFLIFIRILGILLSKLRTRQMRCRDYRLRLARSTLTLVPLLGVHEVVFAPVTEEQARGALRFAKLGFEMFLSSFQGFLVSVLYCFINKEVQSEIRRGWHHCRLRRSLGEEQRQLPERAFRALPSGSGPGEVPTSRGLSSGTLPGPGNEASRELESYC
# Legend:
# Format in all cases: cell-based, human
# [1] = system: wild-type and variant SNAP-GIPR; assay: Surface SNAP-GIPR expression (SNAP-tag labelling) in AD293 cells; conditions: for AD293 Surface: Fig S3E, mean; for Surface SNAP-GIPR expression: sheet Fig 1C;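 on all read-outs here: scaled to the experimental average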
# Description: (§1) Twenty-four hours before the experiment, AD293 or INS-1 cells were reverse transfected with GIPR variant or wild-type plasmids using Lipofectamine 2000 in 96-well, clear-bottom, black microplates precoated with poly-D-lysine. All variants were tested in parallel on each occasion to control for transfection efficiency differences between experiments. Cells were then labeled using the cell-impermeant probe SNAP-Surface Alexa Fluor 647 (500 nM, New England Biolabs, USA) for 10 min at room temperature to label only surface GIPR. […] Several fields of view (FOVs) were acquired within each well using a 20X, 0.75–numerical aperture (NA) air objective. Surface GIPR fluorescence was quantified after flat-field correction using BaSiC ([72]) and segmenting using Phantast ([73]), which generates a mask based on the phase contrast images to demarcate cell versus noncell. Wide-field imaging of the surface-specific labeling achieved by SNAP-Surface probes means that surface expression can be established from whole-cell fluorescence, after subtracting nonspecific fluorescence from a separate well containing nontransfected cells processed in parallel from the same experiment. Data were normalized by dividing by the average specific signal across each experiment, or by the wild-type value, as indicated in the figure legends.
# [2] = system: wild-type and variant SNAP-GIPR; assay: Surface SNAP-GIPR expression (SNAP-tag labelling) in INS-1 cells; conditions: Fig 4G; Mean
# Description: as §1
# [3] = system: wild-type and variant SNAP-GIPR; assay: Single-concentration GIP cAMP response by HTRF in AD293 cells; conditions: Fig S3F, HTRF, mean;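 further: ratio to experiment-wide average response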
# Description: (§2) All variants were tested in parallel on each occasion to control for transfection efficiency differences between experiments.
# [4] = system: wild-type and variant SNAP-GIPR; assay: Single-concentration GIP cAMP response by HTRF in INS-1 cells; conditions: Fig S3E, mean
# Description: as §2
# [5] = system: wild-type and variant SNAP-GIPR; assay: cADDis cAMP imaging in AD293 cells, ensemble, expression-matched and per decile; conditions: Fig S3F, cADDis, mean
# Description: AD293 cells were reverse transfected with the GIPR variant or wild-type plasmids using Lipofectamine 2000 and cotransduced with the cADDis Green Up BacMam (10 μl per well, Montana Molecular, USA), in 96-well, poly-D-lysine–coated microplates. All variants were tested in parallel on each occasion to control for transfection efficiency differences between experiments. After 24 hours, cells were labeled using 500 nM SNAP-Surface Alexa Fluor 647 for 10 min at room temperature. Cells were washed three times and then imaged in KRBH buffer containing 6 mM glucose and 0.1% BSA. Imaging was performed at 37°C by wide-field microscopy using the same microscope as in the “Assessment of surface GIPR expression by SNAP-tag labeling in cell lines” section, with 9 FOVs for both cADDis and SNAP-Surface fluorescence acquired from each well using a 10X, 0.45 NA air objective. […] Flat-field correction was performed using BaSiC ([72]), drift correction was performed using SIFT, and a maximum intensity projection of the cADDis channel was used to segment individual cells. cAMP responses were determined by quantifying the cADDis fluorescence intensity for each cell at each time point. Nonviable cells or noncell objects were excluded according to criteria for allowable cell IBMX/FSK responses. […] The cADDis mask was then used to quantify the SNAP-Surface signal from each cell. Wild-type SNAP-Surface readings were split into deciles, and these deciles were subsequently used to categorize variant-transfected cells to match against the wild type. After trimming the top and bottom deciles, the mean was taken of each decile mean for surface expression level or cAMP response, which achieved matched expression levels by effectively applying an inverse weighting to counteract differences in cell number in each decile for different variants. Ensemble expression levels or cAMP responses were calculated without regard to deciles. Variant cADDis responses were also analyzed within their own surface expression deciles.
# [6] = system: wild-type and variant SNAP-GIPR; assay: Constitutive and agonist-mediated internalization, reversible SNAP-tag labelling, AD293 cells; parameters: key to Internalisation, Vehicle / Internalisation, +GIP / Internalisation, GIP-only: % internalization: residual fluorescence after Mesna vs pre-Mesna; Surface expression: unit not given here; conditions: Mean
# Description: (§3) Twenty-four hours before the experiment, AD293 or INS-1 cells were reverse transfected with GIPR variant or wild-type plasmids using Lipofectamine 2000 in 96-well, clear-bottom, black microplates precoated with poly-D-lysine. All variants were tested in parallel on each occasion to control for transfection efficiency differences between experiments. […] Media were then removed, cells washed with PBS and then placed in TNE buffer (pH 8.6) for imaging. […] After 10 min, the well was reimaged again to detect remaining fluorescence from internalized GIPR. Images were analyzed as in the “Assessment of surface GIPR expression by SNAP-tag labeling in cell lines” section, with the residual specific fluorescence after Mesna treatment expressed relative to the pre-Mesna value to establish percentage internalization.
# [7] = system: wild-type and variant SNAP-GIPR; assay: Constitutive and agonist-mediated internalization, reversible SNAP-tag labelling, INS-1 cells; parameters: key to Internalisation, GIP-only / Internalisation, Vehicle / Internalisation, +GIP: % internalization: residual fluorescence after Mesna vs pre-Mesna; conditions: Mean
# Description: as §3
molecule,measurement,setting,value
B1,AD293 Surface,"[1]; column repeated, paired with cAMP 100 nM",1.77
same,AD293 Surface,[1]; paired with cAMP 100 pM,1.77
same,Surface SNAP-GIPR expression,[1]; replicate 1,1.773
same,Surface SNAP-GIPR expression,[1]; replicate 2,1.115
same,Surface SNAP-GIPR expression,[1]; replicate 3,0.7558
same,Surface SNAP-GIPR expression,[1]; replicate 4,2.264
same,Surface SNAP-GIPR expression,[1]; replicate 5,2.029
same,Surface SNAP-GIPR expression,[1]; replicate 6,1.522
same,Surface SNAP-GIPR expression,[1]; replicate 7,1.263
same,Surface SNAP-GIPR expression,[1]; replicate 8,1.045
same,Surface SNAP-GIPR expression,[1]; replicate 9,1.7
same,Surface SNAP-GIPR expression,[1]; replicate 10,1.857
same,Surface SNAP-GIPR expression,[1]; replicate 11,1.523
same,Surface SNAP-GIPR expression,[1]; replicate 12,1.59
same,Surface SNAP-GIPR expression,[1]; replicate 13,1.942
same,Surface SNAP-GIPR expression,[1]; replicate 14,2.071
same,Surface SNAP-GIPR expression,[1]; replicate 15,1.739
same,Surface SNAP-GIPR expression,[1]; replicate 16,1.656
same,Surface SNAP-GIPR expression,[1]; replicate 17,1.757
same,Surface SNAP-GIPR expression,[1]; replicate 18,2.038
same,Surface SNAP-GIPR expression,[1]; replicate 19,1.806
same,Surface SNAP-GIPR expression,[1]; replicate 20,1.652
same,Surface SNAP-GIPR expression,[1]; replicate 21,1.678
same,Surface SNAP-GIPR expression,[1]; replicate 22,1.86
same,Surface SNAP-GIPR expression,[1]; replicate 23,1.91
same,Surface SNAP-GIPR expression,[1]; replicate 24,1.99
same,Surface SNAP-GIPR expression,[1]; replicate 25,1.721
same,Surface SNAP-GIPR expression,[1]; replicate 26,1.677
same,Surface SNAP-GIPR expression,[1]; replicate 27,2.102
same,Surface SNAP-GIPR expression,[1]; replicate 28,2.164
same,Surface SNAP-GIPR expression,[1]; replicate 29,2.007
same,Surface SNAP-GIPR expression,[1]; replicate 30,1.865
same,Surface SNAP-GIPR expression,[1]; replicate 31,1.878
same,Surface SNAP-GIPR expression,[1]; replicate 32,1.784
same,Surface SNAP-GIPR expression,[1]; replicate 33,1.822
same,Surface SNAP-GIPR expression,[1]; replicate 34,1.937
same,Surface SNAP-GIPR expression,[1]; replicate 35,1.581
same,Surface SNAP-GIPR expression,[1]; replicate 36,1.504
same,Surface SNAP-GIPR expression,[1]; replicate 37,2.229
same,Surface SNAP-GIPR expression,[1]; replicate 38,1.734
same,Surface SNAP-GIPR expression,[1]; replicate 39,2.181
same,Surface SNAP-GIPR expression,[1]; replicate 40,1.889
same,Surface SNAP-GIPR expression,[1]; replicate 41,1.94
same,Surface expression,[2],1.534
same,AD293 100 pM HTRF,"[3]; AD293, 100 pM",1.235
same,AD293 100 nM HTRF,"[3]; AD293, 100 nM",1.479
same,INS-1 cAMP (100 nM),[4],1.242
same,AD293 100 pM cADDis,"[5]; AD293, 100 pM",37.0191
same,AD293 100 nM cADDis,"[5]; AD293, 100 nM",39.23
same,+GIP internalisation (100 nM),"[6]; Fig 4E, GIP 100 nM",1.013
same,GIP-specific internalisation (100 nM),"[6]; Fig 4E, GIP 100 nM",0.2773
same,Constitutive internalisation (100 nM),[6]; Fig 4E,0.7358
same,Surface expression,[6]; Fig 4E,1.854
same,"Internalisation, +GIP","[6]; Fig S4C, AD293",54.7212
same,"Internalisation, GIP-only","[6]; Fig S4C, AD293",14.9417
same,"Internalisation, Vehicle","[6]; Fig S4C, AD293",39.7795
same,+GIP internalisation (100 nM),"[7]; Fig 4G, GIP 100 nM",0.6937
same,GIP-specific internalisation (100 nM),"[7]; Fig 4G, GIP 100 nM",0.1611
same,Constitutive internalisation (100 nM),[7]; Fig 4G,0.5325
same,"Internalisation, +GIP","[7]; Fig S4C, INS-1",45.8367
same,"Internalisation, GIP-only","[7]; Fig S4C, INS-1",10.74
same,"Internalisation, Vehicle","[7]; Fig S4C, INS-1",35.0967
